The values that follow come from patent publication US20150299764A1, “IMMOBILISED CYCLIN-DEPENDENT KINASE 4 FUSION PROTEINS AND USES THEREOF” (UNIVERSITE LIBRE DE BRUXELLES, priority 2012, published 2015).

Series [1] deals with T1, CDK7AS (mutated version of CDK7) in HCT116K7AS cells (Homo sapiens, UniProt P50613, D92E/F91G).
T1 construct: These cells express only a mutated version of CDK7 (CDK7AS); endogenous in cells; host or cells: HCT116K7AS cells transduced with the Avi-tagged cyclin D3/CDK4 reporter (HCT116K7AS-V26)
Nature of the series: Rb kinase activity of streptavidin-immobilized Avi-tagged cyclin D3/CDK4 fusion from HCT116K7AS cells treated with serum and CDK7AS inhibitor. Type of series: cell-based. The protocol:
In order to verify if transgenes expressed in HCT116K7AS cells after transduction with the vectors described in Example 8 could be immobilized on streptavidin-coated sepharose beads and were enzymatically active, the HCT116K7AS cells expressing the cyclin D3/CDK4 fusion protein described in the Example 14 were cultivated in 6 cm Petri dishes with 10 ml DMEM medium supplemented with 10% serum, Sodium pyruvate (1 mM), Penicillin (50 U/ml) and Streptomycin (50 μg/ml). These cells express only a mutated version of CDK7 (CDK7AS) inhibitable by bulky ATP analogs such as 1-NMPP1 (Santa Cruz). The cells were rendered quiescent by incubating them for three days in DMEM without serum, but supplemented with biotin (0.1 mM), Sodium pyruvate (1 mM), Penicillin (50 U/ml) and Streptomycin (50 μg/ml). Cells were stimulated to proliferate by adding 10% serum for 5 or 16 hours in the continuous presence of biotin (0.1 mM). As indicated, vehicle (DMSO) or CDK7AS inhibitor (1-NMPP1) were added together with serum for the same time or for an additional pulse of 1 hour. […]
The pRb kinase assay was performed on the cellular extract bound to the streptavidin-coated sepharose beads as described previously (Coulonval et al., supra). […] The phosphorylation on T826 of the pRb fragment was detected using a phospho-specific anti-pRb (T826) antibody (Epitomics). […]

The test system of series [2] is 48-kDa fragment (amino acid 773-928) of pRb. As to the kind of experiment: pRb kinase assay on HEK293T cell extract bound to streptavidin-coated sepharose beads. The conditions noted are these: transiently transfected HEK293T cells, P-Rb T826 immunoblot. Type of series: biochemical. The protocol:
In order to verify if the transgenes expressed in HEK293T cells after transient transfection could be immobilized on streptavidin-coated sepharose bead and were enzymatically active, HEK293T cells were cultivated and transfected with the indicated plasmids as described in Example 12.
After transfection, cells were washed with PBS and lysed on ice in 1 ml NP-40 lysis buffer as described in Example 11. The homogenized (glass/glass) cellular lysate was sonicated 3 times and stored at −20° C. Equal amount of protein from the defrozen lysates were then incubated for 3 h at 4° C. under slight shaking with 5 μl of streptavidin-coated sepharose beads (GE Healthcare) which had been prewashed three times with NP-40 lysis buffer without inhibitors. After 3 h, beads bound with transgene are washed three times with cold NP-40 lysis buffer without inhibitors before enzymatic activities are measured.
The pRb kinase assay was performed on the cellular extract bound to the streptavidin-coated sepharose beads as described previously (Coulonval et al., 2003, Exp. Cell Res., 291, 135-149). […] Proteins were resolved by SDS-PAGE and transferred on PVDF membranes (Perkin Elmer) before the phosphorylation on T826 of the pRb fragment was detected using the phosphor-specific pRb (T826) antibody (Thermo Fisher). […]
The pRb kinase assay was performed on the cellular extract bound to the streptavidin-coated sepharose beads (GE Healthcare) as described previously (Coulonval et al., 2003, Exp. Cell Res., 291, 135-149). […] Proteins were resolved by SDS-PAGE and transferred on low fluorescence PVDF membranes (Millipore) before the phosphorylation on T826 of the pRb fragment was detected using a phospho-specific rabbit anti-pRb (T826) antibody (Epitomics). Total GST-Rb load of the membranes was quantitated using the mouse anti-GST antibody (Pierce). […]

The subject of series [3] is 48-kDa fragment (aa 773-928) of pRb. Nature of the series: pRb kinase assay on MCF7 cell extract bound to streptavidin-coated sepharose beads. Type of series: biochemical. The protocol:
In order to verify if transgenes expressed in MCF7 cells after transduction with the vectors described in Example 8 could be immobilized on streptavidin-coated sepharose bead and were enzymatically active, the MCF7 cells expressing the luciferase or the cyclin D3/CDK4 fusion protein described in the Example 14 were cultivated in 10 cm Petri dishes with 10 ml DMEM medium supplemented with 5% serum, insulin 6 ng/ml, NEAA (Gibco) 0.1 mM, Sodium pyruvate (1 mM), Penicillin (50 U/ml) and Streptomycin (50 μg/ml). The cells were rendered quiescent by incubating them for three days in phenol-free DMEM without serum and insulin, but supplemented with biotin (0.1 mM), NEAA (0.1 mM, Gibco), Sodium pyruvate (1 mM), Penicillin (50 U/ml) and Streptomycin (50 μg/ml). During the last 24 hours, fulvestrant (10 nM) was added to the culture to block estrogen receptor action. Cells were stimulated to proliferate by adding 5% serum, 6 ng/ml insulin and 100 nM β-estradiol in the culture medium for 16 hours in the continuous presence of biotin (0.1 mM). At the end of the culture, cells were washed with PBS and lysed on ice in 1 ml NP-40 lysis buffer as described in Example 10. The homogenized (glass/glass) cellular lysate was sonicated 3 times and stored at −20° C. Equal amounts of protein from the defrozen lysate were then incubated for 3 h at 4° C. under slight shaking with 5 μl of streptavidin-coated sepharose beads which had been prewashed three times with NP-40 lysis buffer without inhibitors. After 3 h, beads bound with transgene were washed three times with cold NP-40 lysis buffer without inhibitors before enzymatic activities were measured.
The pRb kinase assay was performed on the cellular extract bound to the streptavidin-coated sepharose beads as described previously (Coulonval et al., supra). […] Proteins were resolved by SDS-PAGE and transferred on PVDF membranes (Perkin Elmer) before the phosphorylation on T826 of the pRb fragment was detected using the phospho-specific anti-pRb (T826) antibody (Thermo Fisher). […]

T1 sequence (P50613 whole entry F91G/D92E): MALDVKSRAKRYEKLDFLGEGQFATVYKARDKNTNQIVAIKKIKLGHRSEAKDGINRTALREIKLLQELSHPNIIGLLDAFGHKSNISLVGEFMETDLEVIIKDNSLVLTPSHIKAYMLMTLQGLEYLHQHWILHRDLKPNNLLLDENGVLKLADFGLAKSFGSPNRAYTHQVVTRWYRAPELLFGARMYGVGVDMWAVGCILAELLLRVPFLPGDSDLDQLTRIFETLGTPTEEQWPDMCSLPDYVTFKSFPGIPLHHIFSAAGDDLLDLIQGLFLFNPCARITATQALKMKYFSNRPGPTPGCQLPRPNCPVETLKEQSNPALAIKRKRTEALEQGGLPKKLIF
T1 sequence (P51946 whole entry partner): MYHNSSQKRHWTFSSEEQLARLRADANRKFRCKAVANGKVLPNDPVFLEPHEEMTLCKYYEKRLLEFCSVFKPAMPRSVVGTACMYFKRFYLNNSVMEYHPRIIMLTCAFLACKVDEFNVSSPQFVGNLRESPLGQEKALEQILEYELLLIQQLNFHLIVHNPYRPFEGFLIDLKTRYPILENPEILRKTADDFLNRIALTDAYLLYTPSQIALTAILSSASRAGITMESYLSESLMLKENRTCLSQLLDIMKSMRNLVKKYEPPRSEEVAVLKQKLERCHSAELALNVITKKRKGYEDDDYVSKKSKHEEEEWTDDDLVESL
T1 sequence (P51948 whole entry partner): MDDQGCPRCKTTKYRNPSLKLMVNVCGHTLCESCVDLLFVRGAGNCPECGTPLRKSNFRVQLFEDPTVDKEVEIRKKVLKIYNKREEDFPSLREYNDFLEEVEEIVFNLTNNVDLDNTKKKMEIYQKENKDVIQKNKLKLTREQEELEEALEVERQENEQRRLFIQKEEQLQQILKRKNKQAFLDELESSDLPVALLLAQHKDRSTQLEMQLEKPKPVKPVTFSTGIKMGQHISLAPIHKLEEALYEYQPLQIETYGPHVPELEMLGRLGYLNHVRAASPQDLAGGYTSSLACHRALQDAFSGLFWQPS

With `CC(C)(C)n1nc(Cc2cccc3ccccc23)c2c(N)ncnc21` [1-NMPP1], in series [1] (inhibitor added during the last hour of 17 hours serum stimulation, HCT116K7AS (FIG. 12)), the “serum stimulation of Rb kinase activity of the biotinylatable Cyclin D3/CDK4 fusion” value is “severely impaired”. Besides, in series [1] (inhibitor present together with serum for 5 hours, HCT116K7AS, P-Rb T826 immunoblot (FIG. 12)), the “serum induction of Rb kinase activity of the biotinylatable Cyclin D3/CDK4 fusion” value is recorded as “prevented”.

B1: D3L2K4: cyclin D3 and CDK4 connected by the linker L2, SEQ ID NO. 10 (protein)
chain: MELLCCEGTRHAPRAGPDPRLLGDQRVLQSLLRLEERYVPRASYFQCVQREIKPHMRKMLAYWMLEVCEEQRCEEEVFPLAMNYLDRYLSCVPTRKAQLQLLGAVCMLLASKLRETTPLTIEKLCIYTDHAVSPRQLRDWEVLVLGKLKWDLAAVIAHDFLAFILHRLSLPRDRQALVKKHAQTFLALCATDYTFAMYPPSMIATGSIGAAVQGLGACSMSGDELTELLAGITGTEVDCLRACQEQIEAALRESLREASQTSSSPAPKAPRGSSSQGPSQTSTPTDVTAIHLASKGGGGSLEVLFQPSRMATSRYEPVAEIGVGAYGTVYKARDPHSGHFVALKSVRVPNGGGGGGGLPISTVREVALLRRLEAFEHPNVVRLMDVCATSRTDREIKVTLVFEHVDQDLRTYLDKAPPPGLPAETIKDLMRQFLRGLDFLHANCIVHRDLKPENILVTSGGTVKLADFGLARIYSYQMALTPVVVTLWYRAPEVLLQSTYATPVDMWSVGCIFAEMFRRKPLFCGNSEADQLGKIFDLIGLPPEDDWPRDVSLPRGAFPPRGPRPVQSVVPEMEESGAQLLLEMLTFNPHKRISAFRALQHSYLHKDEGNPE
On to B1, for which the “Rb kinase activity of the immobilized fusion protein” value in series [2] is reported as “No difference in Rb-kinase activity”; in series [2] (listed as cyclin D3/CDK4) it was “active”; in series [3] (16 h after serum/insulin/β-estradiol stimulation of MCF7 cells (FIG. 11B, lane 8)) it was “strongly enhanced”; in series [3] (quiescent MCF7 cells (FIG. 11B, lane 7)) it was “detectable”.

B2: D3L3K4: cyclin D3 and CDK4 connected by the Prescission-cleavable linker L3, SEQ ID NO. 79 (protein)
chain: B1 chain
Take B2: the “Rb kinase activity of the immobilized fusion protein” value is given as “No difference in Rb-kinase activity” in series [2]; “only detected” in series [3] (stable MCF7 populations cultivated with 5% serum and insulin (FIG. 16)).
